The target of assay [1] is T1, human LAP-TGFB1 Fc fusion (human).
T1 construct: also called human LAP-TGFβ1-Fc; human LAP-TGFβ-Fc isoform 1
Briefly: BLI off-rate screen. As to the method:
(§1) The Fab mutants including a positive control, 20E6 Fab, and a negative control Fab (Molecular Innovations, catalog HU-FAB-4510) were diluted to 200 nM in assay buffer and loaded to FAB2G sensors for 180 seconds followed by a one-hour incubation at room temperature in assay buffer to equilibrate the tips. The Fab loaded sensors were assessed for binding with 100 nM human LAP-TGFβ for 180 seconds followed by a 180 second dissociation phase in assay buffer on a ForteBio HTX (software version 9.0.0.66). Non-specific binding to the negative control Fab was subtracted and the binding sensorgrams were aligned to the start of the association phase on the X and Y axis. The Fab binding was fit with the 1:1 binding model, dissociation phase only, with local fitting using ForteBio Data Analysis 9.0 software.

In assay [2] the target is T1, human LAP-TGFB1 Fc fusion. Briefly: BLI off-rate screen. The method, then: as §1
Twenty-three variants containing a single tyrosine substitution in the light chain CDRs (at one of amino acid positions 24-31, 33, 34, 51-56, and 89-95 according to Kabat numbering scheme) and 21 similar heavy chain CDR variants (at amino acids positions 28-31, 33-35, 50-58 including 52a, 95, 96, 98, and 99 according to Kabat numbering scheme) were generated according to FIG. 1 and listed in Table 6 and their interactions with human LAP-TGFb1 were analyzed by ForteBio interferometry. […] In those sequences the VL is correct, even though these sequences are from the heavy chain. Thus, the VL_X ##Y refers to the position of the tyrosine mutation within the antibody, regardless of whether the sequence is a heavy or light chain.
This is another data set of the same source.

Where two headings read alike, the source gives them in different places.

T1 sequence (chain, as listed by the source limits assumed): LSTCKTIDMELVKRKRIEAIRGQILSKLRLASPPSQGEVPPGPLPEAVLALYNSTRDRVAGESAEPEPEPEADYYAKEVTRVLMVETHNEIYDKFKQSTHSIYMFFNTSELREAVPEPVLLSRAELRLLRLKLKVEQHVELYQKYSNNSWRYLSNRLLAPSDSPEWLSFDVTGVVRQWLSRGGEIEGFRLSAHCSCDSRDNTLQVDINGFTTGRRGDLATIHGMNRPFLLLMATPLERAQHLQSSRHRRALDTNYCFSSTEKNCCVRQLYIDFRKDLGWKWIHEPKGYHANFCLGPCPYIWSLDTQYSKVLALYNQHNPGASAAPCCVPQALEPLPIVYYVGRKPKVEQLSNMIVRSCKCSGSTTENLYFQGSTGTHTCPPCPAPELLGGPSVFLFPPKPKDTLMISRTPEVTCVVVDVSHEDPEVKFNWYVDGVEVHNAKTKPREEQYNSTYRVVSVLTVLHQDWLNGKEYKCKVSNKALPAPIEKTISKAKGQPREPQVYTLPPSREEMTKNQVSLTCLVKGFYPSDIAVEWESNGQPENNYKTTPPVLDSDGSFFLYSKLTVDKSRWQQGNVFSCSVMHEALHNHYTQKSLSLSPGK

B1: VH G57D (27BIT) (Fab, V domains shown)
VH: EVQLVQSGAEVKKPGASVKVSCKASGYTFTSYWMHWVRQAPGQGLEWMGRIDPQSGDIKYAQKFQGRATLTVDTSTSTAYMELSRLRSDDTAVYYCARWDYGGYFDVWGQGTLVTVSS
VL: DIQMTQSPSSLSASVGDRVTITCRASQDITNYLNWYQQKPGKAVKLLIYYTSRLHSGVPSRFSGSGSGTDYTLTISSLQPEDFATYFCQQGDTLPWTFGQGTKLEIKR
notes: Light chain: parental 20E6 LC, implied
In assay [1], B1 had a Binding response of 0.582 nm, a Fold change of 1.3 fold and a koff of 0.0337 s⁻¹.

B2: VL Q89Y (54BIT) (Fab, V domains shown)
VH: EVQLVQSGAEVKKPGASVKVSCKASGYTFTSYWMHWVRQAPGQGLEWMGRIDPQSGGIKYAQKFQGRATLTVDTSTSTAYMELSRLRSDDTAVYYCARWDYGGYFDVWGQGTLVTVSS
VL: DIQMTQSPSSLSASVGDRVTITCRASQDITNYLNWYQQKPGKAVKLLIYYTSRLHSGVPSRFSGSGSGTDYTLTISSLQPEDFATYFCYQGDTLPWTFGQGTKLEIKR
Regarding B2, in assay [2], the Binding response worked out at 0.035 nm and the binding result is reported as “no binding (tested: 100 nM antigen)”.

B3: VL Q90Y (55BIT) (Fab, V domains shown)
VH: EVQLVQSGAEVKKPGASVKVSCKASGYTFTSYWMHWVRQAPGQGLEWMGRIDPQSGGIKYAQKFQGRATLTVDTSTSTAYMELSRLRSDDTAVYYCARWDYGGYFDVWGQGTLVTVSS
VL: DIQMTQSPSSLSASVGDRVTITCRASQDITNYLNWYQQKPGKAVKLLIYYTSRLHSGVPSRFSGSGSGTDYTLTISSLQPEDFATYFCQYGDTLPWTFGQGTKLEIKR
Turning to B3, in assay [2], the Binding response is 0.04 nm and the binding result is “no binding (tested: 100 nM antigen)”.

B4: VL S52Y (49BIT) (Fab, V domains shown)
VH: EVQLVQSGAEVKKPGASVKVSCKASGYTFTSYWMHWVRQAPGQGLEWMGRIDPQSGGIKYAQKFQGRATLTVDTSTSTAYMELSRLRSDDTAVYYCARWDYGGYFDVWGQGTLVTVSS
VL: DIQMTQSPSSLSASVGDRVTITCRASQDITNYLNWYQQKPGKAVKLLIYYTYRLHSGVPSRFSGSGSGTDYTLTISSLQPEDFATYFCQQGDTLPWTFGQGTKLEIKR
Regarding B4, in assay [2], the Binding response was 0.431 nm, the Fold change turned out to be 1 fold and the koff came to 0.0409 s⁻¹.

B5: VL T93Y (58BIT) (Fab, V domains shown)
VH: EVQLVQSGAEVKKPGASVKVSCKASGYTFTSYWMHWVRQAPGQGLEWMGRIDPQSGGIKYAQKFQGRATLTVDTSTSTAYMELSRLRSDDTAVYYCARWDYGGYFDVWGQGTLVTVSS
VL: DIQMTQSPSSLSASVGDRVTITCRASQDITNYLNWYQQKPGKAVKLLIYYTSRLHSGVPSRFSGSGSGTDYTLTISSLQPEDFATYFCQQGDYLPWTFGQGTKLEIKR
In the case of B5, in assay [2], the Binding response was determined as 0.586 nm, the Fold change came out at 1.5 fold and the off-rate (koff) was 0.0273 s⁻¹.

B6: VL Q27Y (41BIT) (Fab, V domains shown)
VH: EVQLVQSGAEVKKPGASVKVSCKASGYTFTSYWMHWVRQAPGQGLEWMGRIDPQSGGIKYAQKFQGRATLTVDTSTSTAYMELSRLRSDDTAVYYCARWDYGGYFDVWGQGTLVTVSS
VL: DIQMTQSPSSLSASVGDRVTITCRASYDITNYLNWYQQKPGKAVKLLIYYTSRLHSGVPSRFSGSGSGTDYTLTISSLQPEDFATYFCQQGDTLPWTFGQGTKLEIKR
In assay [2], B6 registered a Binding response of 0.427 nm, a Fold change of 1.8 fold and a koff of 0.0229 s⁻¹.

B7: VL T30Y (44BIT) (Fab, V domains shown)
VH: EVQLVQSGAEVKKPGASVKVSCKASGYTFTSYWMHWVRQAPGQGLEWMGRIDPQSGGIKYAQKFQGRATLTVDTSTSTAYMELSRLRSDDTAVYYCARWDYGGYFDVWGQGTLVTVSS
VL: DIQMTQSPSSLSASVGDRVTITCRASQDIYNYLNWYQQKPGKAVKLLIYYTSRLHSGVPSRFSGSGSGTDYTLTISSLQPEDFATYFCQQGDTLPWTFGQGTKLEIKR
In assay [2], B7 showed a Binding response of 0.472 nm, a Fold change of 2.6 fold and a koff of 0.0162 s⁻¹.

B8: VL N34Y (47BIT) (Fab, V domains shown)
VH: EVQLVQSGAEVKKPGASVKVSCKASGYTFTSYWMHWVRQAPGQGLEWMGRIDPQSGGIKYAQKFQGRATLTVDTSTSTAYMELSRLRSDDTAVYYCARWDYGGYFDVWGQGTLVTVSS
VL: DIQMTQSPSSLSASVGDRVTITCRASQDITNYLYWYQQKPGKAVKLLIYYTSRLHSGVPSRFSGSGSGTDYTLTISSLQPEDFATYFCQQGDTLPWTFGQGTKLEIKR
In assay [2], B8 showed a Binding response of 0.221 nm, a Fold change of 1 fold and a koff of 0.0436 s⁻¹.

B9: VL S56Y (53BIT) (Fab, V domains shown)
VH: EVQLVQSGAEVKKPGASVKVSCKASGYTFTSYWMHWVRQAPGQGLEWMGRIDPQSGGIKYAQKFQGRATLTVDTSTSTAYMELSRLRSDDTAVYYCARWDYGGYFDVWGQGTLVTVSS
VL: DIQMTQSPSSLSASVGDRVTITCRASQDITNYLNWYQQKPGKAVKLLIYYTSRLHYGVPSRFSGSGSGTDYTLTISSLQPEDFATYFCQQGDTLPWTFGQGTKLEIKR
In assay [2], B9 came in with a Binding response of 0.344 nm, a Fold change of 1.3 fold and a koff of 0.0324 s⁻¹.

B10: VL R24Y (38BIT) (Fab, V domains shown)
VH: EVQLVQSGAEVKKPGASVKVSCKASGYTFTSYWMHWVRQAPGQGLEWMGRIDPQSGGIKYAQKFQGRATLTVDTSTSTAYMELSRLRSDDTAVYYCARWDYGGYFDVWGQGTLVTVSS
VL: DIQMTQSPSSLSASVGDRVTITCYASQDITNYLNWYQQKPGKAVKLLIYYTSRLHSGVPSRFSGSGSGTDYTLTISSLQPEDFATYFCQQGDTLPWTFGQGTKLEIKR
Turning to B10, in assay [2], the Binding response was found to be 0.446 nm, the Fold change was 1.6 fold and the koff came out at 0.027 s⁻¹.

B11: VL T51Y (48BIT) (Fab, V domains shown)
VH: EVQLVQSGAEVKKPGASVKVSCKASGYTFTSYWMHWVRQAPGQGLEWMGRIDPQSGGIKYAQKFQGRATLTVDTSTSTAYMELSRLRSDDTAVYYCARWDYGGYFDVWGQGTLVTVSS
VL: DIQMTQSPSSLSASVGDRVTITCRASQDITNYLNWYQQKPGKAVKLLIYYYSRLHSGVPSRFSGSGSGTDYTLTISSLQPEDFATYFCQQGDTLPWTFGQGTKLEIKR
Regarding B11, in assay [2], the Binding response was determined as 0.204 nm, the Fold change is 0.8 fold and the koff was determined as 0.0508 s⁻¹.

B12: VL P95Y (60BIT) (Fab, V domains shown)
VH: EVQLVQSGAEVKKPGASVKVSCKASGYTFTSYWMHWVRQAPGQGLEWMGRIDPQSGGIKYAQKFQGRATLTVDTSTSTAYMELSRLRSDDTAVYYCARWDYGGYFDVWGQGTLVTVSS
VL: DIQMTQSPSSLSASVGDRVTITCRASQDITNYLNWYQQKPGKAVKLLIYYTSRLHSGVPSRFSGSGSGTDYTLTISSLQPEDFATYFCQQGDTLYWTFGQGTKLEIKR
Consider B12, for which, in assay [2], the Binding response was 0.015 nm and the binding result is on record as “no binding (tested: 100 nM antigen)”.

B13: VL S26Y (40BIT) (Fab, V domains shown)
VH: EVQLVQSGAEVKKPGASVKVSCKASGYTFTSYWMHWVRQAPGQGLEWMGRIDPQSGGIKYAQKFQGRATLTVDTSTSTAYMELSRLRSDDTAVYYCARWDYGGYFDVWGQGTLVTVSS
VL: DIQMTQSPSSLSASVGDRVTITCRAYQDITNYLNWYQQKPGKAVKLLIYYTSRLHSGVPSRFSGSGSGTDYTLTISSLQPEDFATYFCQQGDTLPWTFGQGTKLEIKR
B13: in assay [2], the Binding response was 0.371 nm, the Fold change turned out to be 1.5 fold and the koff was 0.0283 s⁻¹.

B14: VL L94Y (59BIT) (Fab, V domains shown)
VH: EVQLVQSGAEVKKPGASVKVSCKASGYTFTSYWMHWVRQAPGQGLEWMGRIDPQSGGIKYAQKFQGRATLTVDTSTSTAYMELSRLRSDDTAVYYCARWDYGGYFDVWGQGTLVTVSS
VL: DIQMTQSPSSLSASVGDRVTITCRASQDITNYLNWYQQKPGKAVKLLIYYTSRLHSGVPSRFSGSGSGTDYTLTISSLQPEDFATYFCQQGDTYPWTFGQGTKLEIKR
In assay [2], B14 gave a Binding response of 0.308 nm, a Fold change of 0.7 fold and a koff of 0.0571 s⁻¹.

B15: VL R53Y (50BIT) (Fab, V domains shown)
VH: EVQLVQSGAEVKKPGASVKVSCKASGYTFTSYWMHWVRQAPGQGLEWMGRIDPQSGGIKYAQKFQGRATLTVDTSTSTAYMELSRLRSDDTAVYYCARWDYGGYFDVWGQGTLVTVSS
VL: DIQMTQSPSSLSASVGDRVTITCRASQDITNYLNWYQQKPGKAVKLLIYYTSYLHSGVPSRFSGSGSGTDYTLTISSLQPEDFATYFCQQGDTLPWTFGQGTKLEIKR
B15: in assay [2], the Binding response was determined as 0.365 nm, the Fold change was found to be 1.6 fold and the koff came to 0.027 s⁻¹.

B16: VL N31Y (45BIT) (Fab, V domains shown)
VH: EVQLVQSGAEVKKPGASVKVSCKASGYTFTSYWMHWVRQAPGQGLEWMGRIDPQSGGIKYAQKFQGRATLTVDTSTSTAYMELSRLRSDDTAVYYCARWDYGGYFDVWGQGTLVTVSS
VL: DIQMTQSPSSLSASVGDRVTITCRASQDITYYLNWYQQKPGKAVKLLIYYTSRLHSGVPSRFSGSGSGTDYTLTISSLQPEDFATYFCQQGDTLPWTFGQGTKLEIKR
In assay [2], B16 displayed a Binding response of 0.344 nm, a Fold change of 1.8 fold and a koff of 0.0241 s⁻¹.

What is called koff is a measure of how fast the partners let go of each other.

The values above are taken from patent publication US20230272056A1 (Merck Sharp & Dohme, published 2023).
